B1: human PC5 (proprotein convertase subtilisin/kexin type 5), expressed from pSYN-PC5-003 (protein)
chain: RVYTNHWAVKIAGGFPEANRIASKYGFINIGQIGALKDYYHFYHSRTIKRSVISSRGTHSFISMEPKVEWIQQQVVKKRTKRDYDFSRAQSTYFNDPKWPSMWYMHCSDNTHPCQSDMNIEGAWKRGYTGKNIVVTILDDGIERTHPDLMQNYDALASCDVNGNDLDPMPRYDASNENKHGTRCAGEVAAAANNSHCTVGIAFNAKIGGVRMLDGDVTDMVEAKSVSFNPQHVHIYSASWGPDDDGKTVDGPAPLTRQAFENGVRMGRRGLGSVFVWASGNGGRSKDHCSCDGYTNSIYTISISSTAESGKKPWYLEECSSTLATTYSSGESYDKKIITTDLRQRCTDNHTGTSASAPMAAGIIALALEANPFLTWRDVQHVIVRTSRAGHLNANDWKTNAAGFKVSHLYGFGLMDAEAMVMEAEKWTTVPRQHVCVESTDRQIKTIRPNSAVRSIYKASGCSDNPNRHVNYLEHVVVRITITHPRRGDLAIYLTSPSGTRSQLLANRLFDHSMEGFKNWEFMTIHCWGERAAGDWVLEVYDTPSQLRNFKTPGKLKEWSLVLYGTSVQPYSPTNEFPKVERFRYSRVEDPTDDYGTEDYAGPCDPECSEVGCDGPGPDHCNDCLHYYYKLKNNTRICVSSCPPGHYHADKKRCRKCAPNCESCFGSHGDQCMSCKYGYFLNEETNSCVTHCPDGSYQDTKKNLCRKCSENCKTCTEFHNCTECRDGLSLQGSRCSVSCEDGRYFNGQDCQPCHRFCATCAGAGADGCINCTEGYFMEDGRCVQSCSISYYFDHSSENGYKSCKKCDISCLTCNGPGFKNCTSCPSGYLLDLGMCQMGAICKDATEESWAEGGFCMLVKKNNLCQRKVLQQLCCKTCTFQG
B2: soluble form of human PC7 (amino acids 1-663) (protein)
chain: LAGTGGPDGQGTGGPSWAVHLESLEGDGEEETLEQQADALAQAAGLVNAGRIGELQGHYLFVQPAGHRPALEVEAIRQQVEAVLAGHEAVRWHSEQRLLRRAKRSVHFNDPKYPQQWHLNNRRSPGRDINVTGVWERNVTGRGVTVVVVDDGVEHTIQDIAPNYSPEGSYDLNSNDPDPMPHPDVENGNHHGTRCAGEIAAVPNNSFCAVGVAYGSRIAGIRVLDGPLTDSMEAVAFNKHYQINDIYSCSWGPDDDGKTVDGPHQLGKAALQHGVIAGRQGFGSIFVVASGNGGQHNDNCNYDGYANSIYTVTIGAVDEEGRMPFYAEECASMLAVTFSGGDKMLRSIVTTDWDLQKGTGCTEGHTGTSAAAPLAAGMIALMLQVRPCLTWRDVQHIIVFTATRYEDRRAEWVTNEAGFSHSHQHGFGLLNAWRLVNAAKIWTSVPYLASYVSPVLKENKAIPQSPRSLEVLWNVSRMDLEMSGLKTLEHVAVTVSITHPRRGSLELKLFCPSGMMSLIGAPRSMDSDPNGFNDWTFSTVRCWGERARGTYRLVIRDVGDESFQVGILRQWQLTLYGSVWSAVDIRDRQRLLESAMSGKYLHDDFALPCPPGLKIPEEDGYTITPN
B3: soluble form of yeast Kex2 (amino acids 1-675) (protein)
chain: LVSSQQIPLKDHTSRQYFAVESNETLSRLEEMHPNWKYEHDVRGLPNHYVFSKELLKLGKRSSLEELQGDNNDHILSVHDLFPRNDLFKRLPVPAPPMDSSLLPVKEAEDKLSINDPLFERQWHLVNPSFPGSDINVLDLWYNNITGAGVVAAIVDDGLDYENEDLKDNFCAEGSWDFNDNTNLPKPRLSDDYHGTRCAGEIAAKKGNNFCGVGVGYNAKISGIRILSGDITTEDEAASLIYGLDVNDIYSCSWGPADDGRHLQGPSDLVKKALVKGVTEGRDSKGAIYVFASGNGGTRGDNCNYDGYTNSIYSITIGAIDHKDLHPPYSEGCSAVMAVTYSSGSGEYIHSSDINGRCSNSHGGTSAAAPLAAGVYTLLLEANPNLTWRDVQYLSILSAVGLEKNADGDWRDSAMGKKYSHRYGFGKIDAHKLIEMSKTWENVNAQTWFYLPTLYVSQSTNSTEETLESVITISEKSLQDANFKRIEHVTVTVDIDTEIRGTTTVDLISPAGIISNLGVVRPRDVSSEGFKDWTFMSVAHWGENGVGDWKIKVKTTENGHRIDFHSWRLKLFGESIDSSKTETFVFGNDKEEVEPAATESTVSQYSASSTSISISATSTSSISIGVETSAIPQTTTASTDPDSDPNTPKKLSSPRQ

Biological target: rFVIIIBDD-Fc-Fc (B-domain deleted Factor VIII-Fc fused to a second Fc through a (GGGGS)4 linker; expressed from pSYN-FVIII-041)
Sequence (chain, as listed by the source, stated change not applied): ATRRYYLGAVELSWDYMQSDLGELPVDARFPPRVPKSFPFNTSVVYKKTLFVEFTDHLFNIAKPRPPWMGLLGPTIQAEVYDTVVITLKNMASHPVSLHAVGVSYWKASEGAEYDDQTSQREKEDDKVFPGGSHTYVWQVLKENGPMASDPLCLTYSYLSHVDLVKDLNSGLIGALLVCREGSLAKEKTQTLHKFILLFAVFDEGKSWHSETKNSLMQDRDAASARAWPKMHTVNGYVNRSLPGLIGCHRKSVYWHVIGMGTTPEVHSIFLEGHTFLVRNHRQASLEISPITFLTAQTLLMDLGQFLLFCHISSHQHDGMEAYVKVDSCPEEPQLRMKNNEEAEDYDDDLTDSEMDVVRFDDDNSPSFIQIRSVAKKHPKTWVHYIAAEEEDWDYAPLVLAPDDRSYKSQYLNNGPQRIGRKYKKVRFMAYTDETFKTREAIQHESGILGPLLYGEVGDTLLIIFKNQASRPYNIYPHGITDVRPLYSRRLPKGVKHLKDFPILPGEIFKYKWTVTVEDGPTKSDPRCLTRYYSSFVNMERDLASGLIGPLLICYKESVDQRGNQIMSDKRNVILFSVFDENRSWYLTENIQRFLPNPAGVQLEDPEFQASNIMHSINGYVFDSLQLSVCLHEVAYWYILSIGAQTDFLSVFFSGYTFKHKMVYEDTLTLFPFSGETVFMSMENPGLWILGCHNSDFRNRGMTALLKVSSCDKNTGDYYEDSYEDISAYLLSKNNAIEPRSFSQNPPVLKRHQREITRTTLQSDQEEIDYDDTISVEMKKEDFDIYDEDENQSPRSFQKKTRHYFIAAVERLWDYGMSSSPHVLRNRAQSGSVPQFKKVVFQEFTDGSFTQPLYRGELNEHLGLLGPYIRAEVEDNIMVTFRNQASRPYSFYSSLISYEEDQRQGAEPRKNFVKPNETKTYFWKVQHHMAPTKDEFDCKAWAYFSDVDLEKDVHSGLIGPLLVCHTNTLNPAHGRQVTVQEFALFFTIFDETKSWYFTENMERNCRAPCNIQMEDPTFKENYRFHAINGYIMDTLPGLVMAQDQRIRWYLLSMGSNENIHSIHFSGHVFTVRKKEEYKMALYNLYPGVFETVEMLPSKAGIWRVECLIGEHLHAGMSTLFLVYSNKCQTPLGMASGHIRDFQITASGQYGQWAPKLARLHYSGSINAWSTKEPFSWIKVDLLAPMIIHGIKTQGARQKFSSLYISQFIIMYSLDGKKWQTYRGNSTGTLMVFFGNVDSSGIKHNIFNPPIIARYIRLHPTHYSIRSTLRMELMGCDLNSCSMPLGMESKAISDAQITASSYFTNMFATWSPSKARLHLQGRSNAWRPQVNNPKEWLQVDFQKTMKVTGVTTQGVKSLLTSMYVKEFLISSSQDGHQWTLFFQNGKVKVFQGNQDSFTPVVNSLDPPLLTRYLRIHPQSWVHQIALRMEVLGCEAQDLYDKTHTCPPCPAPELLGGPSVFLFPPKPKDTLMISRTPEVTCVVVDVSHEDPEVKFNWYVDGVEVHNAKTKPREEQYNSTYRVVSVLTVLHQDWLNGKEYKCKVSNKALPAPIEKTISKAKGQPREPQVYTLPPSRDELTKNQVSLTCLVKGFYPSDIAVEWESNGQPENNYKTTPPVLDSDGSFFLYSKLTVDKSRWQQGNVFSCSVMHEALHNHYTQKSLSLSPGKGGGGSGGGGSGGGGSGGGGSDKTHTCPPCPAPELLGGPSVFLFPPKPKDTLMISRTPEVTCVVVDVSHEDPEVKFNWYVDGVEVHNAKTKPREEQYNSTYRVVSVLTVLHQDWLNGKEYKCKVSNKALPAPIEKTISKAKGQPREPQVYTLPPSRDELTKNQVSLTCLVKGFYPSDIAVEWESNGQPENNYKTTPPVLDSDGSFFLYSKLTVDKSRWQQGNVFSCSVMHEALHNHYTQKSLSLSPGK

Protein	nonprocessed FVIIIFc on SDS-PAGE (SYPRO Ruby and Coomassie staining)
B1	Kex2, PC7, PACE, and PC5 decrease nonprocessed Factor VIII
B2	Kex2, PC7, PACE, and PC5 decrease nonprocessed Factor VIII
B3	Kex2, PC7, PACE, and PC5 decrease nonprocessed Factor VIII
